Experimental data published in patent US20260191937A1, “AGENTS, COMPOSITIONS AND METHODS FOR MODULATING IMMUNITY” (The University of Queensland, priority 2022, published 2026).

Molecular target: T1, 6PGD (Mus musculus, UniProt Q9DCD0)
T1 construct: host or cells: HEK293
T1 sequence (Q9DCD0 1-483): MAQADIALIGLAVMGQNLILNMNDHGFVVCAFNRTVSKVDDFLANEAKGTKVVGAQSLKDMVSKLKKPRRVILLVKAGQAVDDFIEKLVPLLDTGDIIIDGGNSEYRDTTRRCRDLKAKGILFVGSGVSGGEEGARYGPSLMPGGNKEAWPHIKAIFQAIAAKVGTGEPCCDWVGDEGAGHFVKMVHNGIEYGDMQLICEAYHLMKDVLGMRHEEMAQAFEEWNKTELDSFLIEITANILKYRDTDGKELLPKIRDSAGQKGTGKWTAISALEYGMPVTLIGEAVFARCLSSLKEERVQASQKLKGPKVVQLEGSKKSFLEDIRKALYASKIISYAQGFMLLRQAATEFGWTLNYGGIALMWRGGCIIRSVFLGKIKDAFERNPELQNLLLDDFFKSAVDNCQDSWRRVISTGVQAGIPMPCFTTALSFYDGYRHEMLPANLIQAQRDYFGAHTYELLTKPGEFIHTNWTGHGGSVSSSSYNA
Experiment: 6PGD enzyme activity in lysates of HEK293 cells co-transfected with 6PGD and HDAC7 constructs
Type: biochemical
Settings: molar ratio 1:1 (6PGD:HDAC), 24 h after transfection
Procedure: FIG. 19 is a graphical representation of HDAC7 increasing 6PGD enzyme activity in HEK293 cells. HEK293 cells were transfected with expression constructs encoding (A-B) 6PGD and/or HDAC7, (C-D) 6PGD and HDAC7 wild type (WT) or HDAC7 enzyme-dead (ED), (E-F) 6PGD and full-length (HDAC7), N-terminal HDAC7 (N-HDAC7) or C-terminal HDAC7 (C-HDAC7) at a molar ratio of 1:1 (6PGD:HDAC). After 24 h, cells were lysed and the enzymatic activity of 6PGD in lysates was measured. […] Statistical analysis was performed using repeated measure one-way ANOVA followed by Dunnett's multiple comparison (ns, not significant; * p<0.05; ** p<0.01). (B, D, F) Levels of 6PGD (Flag), HDAC7 (V5) and GAPDH expression in cell lysates were assessed via western blot.
6PGD activity can be enhanced by co-delivering HDAC7. HEK293 cells were plated in 12-well plates and incubated overnight at 37° C. The Lipofectamine 2000 (Invitrogen) transfection reagent was prepared in OptiMEM to a final concentration of 1 μg DNA per μL and incubated at room temperature for 5 min. Plasmid DNA was diluted in OptiMEM (Gibco) and then mixed with Lipofectamine 2000, after which the transfection mixture was incubated at room temperature for 30 min. Prior to transfection, cell culture media was replaced with OptiMEM, after which the transfection mixture was added into cells. Cells were then incubated at 37° C. for 6-8 h before being supplemented with fresh OptiMEM. 24 h post-transfection, culture supernatants were discarded, and cells were briefly washed with DPBS and lysed for different analyses.
Mouse HDAC7 (the unspliced isoform lacking the first 22 amino acids), an enzyme-dead (ED) mutant HDAC7 carrying an H-to-A mutation (Das Gupta et al., 2020, Cell Rep. 30:2712-2728.e2718), N-terminal HDAC7 (N-HDAC7, amino acid 23-504, comprising a PHA03247 super family motif corresponding to the herpes simplex virus-1 UL36 large tegument protein, which is known to comprise deubiquitinating activity) and C-terminal HDAC7 (C-HDAC7, amino acid 498-938) were cloned in pEF6/V5-His-TOPO vectors. Mouse 6PGD was cloned in a pCMV expression vector (MG53165-CF, Sino Biologicals). HEK293 cells were transiently transfected with expression constructs encoding 6PGD and HDAC7 at a molar ratio of 1:1. 24 h after transfection, cells were lysed and lysates were subjected to 6PGD activity assays using an in vitro assay (Abcam), as per the manufacturer's instructions. The enzymatic activity was determined by measuring absorbance at 460 nm in kinetic mode using a plate reader (Infinite M Plex, Tecan).

B1: HDAC7: Mouse HDAC7 lacking the first 22 amino acids, SEQ ID NO:13, expression construct (protein, listed as Mus musculus)
chain: MDLRVGQRPTVEPPPEPALLTLQHPQRLHRHLFLAGLHQQQRSAEPMRLSMDPPMPELQGGQQEQELRQLLNKDKSKRSAVASSVVKQKLAEVILKKQQAALERTVHPSSPSIPYRTLEPLDTEGAARSVLSSFLPPVPSLPTEPPEHFPLRKTVSEPNLKLRYKPKKSLERRKNPLLRKESAPPSLRRRPAETLGDSSPSSSSTPASGCSSPNDSEHGPNPALGSEADGDRRTHSTLGPRGPVLGNPHAPLFLHHGLEPEAGGTLPSRLQPILLLDPSVSHAPLWTVPGLGPLPFHFAQPLLTTERLSGSGLHRPLNRTRSEPLPPSATASPLLAPLQPRQDRLKPHVQLIKPAISPPQRPAKPSEKPRLRQIPSAEDLETDGGGVGPMANDGLEHRESGRGPPEGRGSISLQQHQQVPPWEQQHLAGRLSQGSPGDSVLIPLAQVGHRPLSRTQSSPAAPVSMLSPEPTCQTQVLNSSETPATGLVYDSVMLKHQCSCGDNSKHPEHAGRIQSIWSRLQERGLRSQCECLRGRKASLEELQSVHSERHVLLYGTNPLSRLKLDNGKLTGLLAQRTFVMLPCGGVGVDTDTIWNELHSSNAARWAAGSVTDLAFKVASRELKNGFAVVRPPGHHADHSTAMGFCFFNSVAIACRQLQQHGKASKILIVDWDVHHGNGTQQTFYQDPSVLYISLHRHDDGNFFPGSGAVDEVGTGSGEGFNVNVAWAGGLDPPMGDPEYLAAFRIVVMPIAREFAPDLVLVSAGFDAAEGHPAPLGGYHVSAKCFGYMTQQLMNLAGGAVVLALEGGHDLTAICDASEACVAALLGNKVDPLSEESWKQKPNLSAIRSLEAVVRVHRKYWGCMQRLASCPDSWLPRVPGADAEVEAVTALASLSVGILAEDRPSERLVEEEEPMNL
  enzymatic activity of 6PGD relative to cells transfected with 6PGD alone: significantly increases 6PGD activity
Listed as WT HDAC7
  enzymatic activity of 6PGD relative to cells transfected with 6PGD alone: significantly increased the enzymatic activity of 6PGD to a similar level

B2: ED HDAC7: enzyme-dead mutant HDAC7 carrying an H-to-A mutation, SEQ ID NO:14 (protein)
chain: MDLRVGQRPTVEPPPEPALLTLQHPQRLHRHLFLAGLHQQQRSAEPMRLSMDPPMPELQGGQQEQELRQLLNKDKSKRSAVASSVVKQKLAEVILKKQQAALERTVHPSSPSIPYRTLEPLDTEGAARSVLSSFLPPVPSLPTEPPEHFPLRKTVSEPNLKLRYKPKKSLERRKNPLLRKESAPPSLRRRPAETLGDSSPSSSSTPASGCSSPNDSEHGPNPALGSEADGDRRTHSTLGPRGPVLGNPHAPLFLHHGLEPEAGGTLPSRLQPILLLDPSVSHAPLWTVPGLGPLPFHFAQPLLTTERLSGSGLHRPLNRTRSEPLPPSATASPLLAPLQPRQDRLKPHVQLIKPAISPPQRPAKPSEKPRLRQIPSAEDLETDGGGVGPMANDGLEHRESGRGPPEGRGSISLQQHQQVPPWEQQHLAGRLSQGSPGDSVLIPLAQVGHRPLSRTQSSPAAPVSMLSPEPTCQTQVLNSSETPATGLVYDSVMLKHQCSCGDNSKHPEHAGRIQSIWSRLQERGLRSQCECLRGRKASLEELQSVHSERHVLLYGTNPLSRLKLDNGKLTGLLAQRTFVMLPCGGVGVDTDTIWNELHSSNAARWAAGSVTDLAFKVASRELKNGFAVVRPPGHAADHSTAMGFCFFNSVAIACRQLQQHGKASKILIVDWDVHHGNGTQQTFYQDPSVLYISLHRHDDGNFFPGSGAVDEVGTGSGEGFNVNVAWAGGLDPPMGDPEYLAAFRIVVMPIAREFAPDLVLVSAGFDAAEGHPAPLGGYHVSAKCFGYMTQQLMNLAGGAVVLALEGGHDLTAICDASEACVAALLGNKVDPLSEESWKQKPNLSAIRSLEAVVRVHRKYWGCMQRLASCPDSWLPRVPGADAEVEAVTALASLSVGILAEDRPSERLVEEEEPMNL
  enzymatic activity of 6PGD relative to cells transfected with 6PGD alone: significantly increased the enzymatic activity of 6PGD to a similar level

B3: N-terminal domain of HDAC7: N-terminal HDAC7, amino acid 23-504, SEQ ID NO:15 (protein, listed as Mus musculus)
chain: MDLRVGQRPTVEPPPEPALLTLQHPQRLHRHLFLAGLHQQQRSAEPMRLSMDPPMPELQGGQQEQELRQLLNKDKSKRSAVASSVVKQKLAEVILKKQQAALERTVHPSSPSIPYRTLEPLDTEGAARSVLSSFLPPVPSLPTEPPEHFPLRKTVSEPNLKLRYKPKKSLERRKNPLLRKESAPPSLRRRPAETLGDSSPSSSSTPASGCSSPNDSEHGPNPALGSEADGDRRTHSTLGPRGPVLGNPHAPLFLHHGLEPEAGGTLPSRLQPILLLDPSVSHAPLWTVPGLGPLPFHFAQPLLTTERLSGSGLHRPLNRTRSEPLPPSATASPLLAPLQPRQDRLKPHVQLIKPAISPPQRPAKPSEKPRLRQIPSAEDLETDGGGVGPMANDGLEHRESGRGPPEGRGSISLQQHQQVPPWEQQHLAGRLSQGSPGDSVLIPLAQVGHRPLSRTQSSPAAPVSMLSPEPTCQTQVLNSSET
  enzymatic activity of 6PGD relative to cells transfected with 6PGD alone: increased the enzymatic activity of 6PGD to similar levels to that of the WT HDAC7

B4: C-terminal deacetylase domain of HDAC7: C-terminal HDAC7, amino acid 498-938, SEQ ID NO:23 (protein, listed as Mus musculus)
chain: MVLNSSETPATGLVYDSVMLKHQCSCGDNSKHPEHAGRIQSIWSRLQERGLRSQCECLRGRKASLEELQSVHSERHVLLYGTNPLSRLKLDNGKLTGLLAQRTFVMLPCGGVGVDTDTIWNELHSSNAARWAAGSVTDLAFKVASRELKNGFAVVRPPGHHADHSTAMGFCFFNSVAIACRQLQQHGKASKILIVDWDVHHGNGTQQTFYQDPSVLYISLHRHDDGNFFPGSGAVDEVGTGSGEGFNVNVAWAGGLDPPMGDPEYLAAFRIVVMPIAREFAPDLVLVSAGFDAAEGHPAPLGGYHVSAKCFGYMTQQLMNLAGGAVVLALEGGHDLTAICDASEACVAALLGNKVDPLSEESWKQKPNLSAIRSLEAVVRVHRKYWGCMQRLASCPDSWLPRVPGADAEVEAVTALASLSVGILAEDRPSERLVEEEEPMNL
  enzymatic activity of 6PGD relative to cells transfected with 6PGD alone: does not activate 6PGD
